Source: patent US10712339B2, “Engineering of a novel breast tumor microenvironment on a microfluidic chip” (Arizona Board of Regents on behalf of Arizona State …, priority 2014, dated 2020)

System: SUM-159 breast cancer cells
Assay: Chemoinvasion of breast cancer cells in the microfluidic platform
Format: cell-based
Experimental: We encapsulated highly invasive SUM-159 breast cancer cells within our platform. Cells were encapsulated in a mixture of Collagen:Matrigel at a ratio of 1:1 (final collagen density is 1 mg/mL) and the solution was injected into the tumor region while cell-free collagen type I (2 mg/mL) was injected into the stromal region. In one platform, 50 ng/mL of epidermal growth factor (EGF) was injected to the side channels to stimulate chemoinvasion, while in a control platform, no EGF was injected. We observed the migration of the cells throughout the stromal region over the course of four days in both conditions.
There was noticeable collagen deformation showing that the cells are actively sensing their biophysical environment and reacting to it. […] Cells without EGF stimulation did invade as well but not by the same distance.

[1] = 50 ng/mL EGF vs -EGF control, day 4

B1: EGF: epidermal growth factor injected to the side channels to stimulate chemoinvasion (protein, UniProt P01133 23-1207, looked up)
Pro-epidermal growth factor: PQHWSCPEGTLAGNGNSTCVGPAPFLIFSHGNSIFRIDTEGTNYEQLVVDAGVSVIMDFHYNEKRIYWVDLERQLLQRVFLNGSRQERVCNIEKNVSGMAINWINEEVIWSNQQEGIITVTDMKGNNSHILLSALKYPANVAVDPVERFIFWSSEVAGSLYRADLDGVGVKALLETSEKITAVSLDVLDKRLFWIQYNREGSNSLICSCDYDGGSVHISKHPTQHNLFAMSLFGDRIFYSTWKMKTIWIANKHTGKDMVRINLHSSFVPLGELKVVHPLAQPKAEDDTWEPEQKLCKLRKGNCSSTVCGQDLQSHLCMCAEGYALSRDRKYCEDVNECAFWNHGCTLGCKNTPGSYYCTCPVGFVLLPDGKRCHQLVSCPRNVSECSHDCVLTSEGPLCFCPEGSVLERDGKTCSGCSSPDNGGCSQLCVPLSPVSWECDCFPGYDLQLDEKSCAASGPQPFLLFANSQDIRHMHFDGTDYGTLLSQQMGMVYALDHDPVENKIYFAHTALKWIERANMDGSQRERLIEEGVDVPEGLAVDWIGRRFYWTDRGKSLIGRSDLNGKRSKIITKENISQPRGIAVHPMAKRLFWTDTGINPRIESSSLQGLGRLVIASSDLIWPSGITIDFLTDKLYWCDAKQSVIEMANLDGSKRRRLTQNDVGHPFAVAVFEDYVWFSDWAMPSVMRVNKRTGKDRVRLQGSMLKPSSLVVVHPLAKPGADPCLYQNGGCEHICKKRLGTAWCSCREGFMKASDGKTCLALDGHQLLAGGEVDLKNQVTPLDILSKTRVSEDNITESQHMLVAEIMVSDQDDCAPVGCSMYARCISEGEDATCQCLKGFAGDGKLCSDIDECEMGVPVCPPASSKCINTEGGYVCRCSEGYQGDGIHCLDIDECQLGEHSCGENASCTNTEGGYTCMCAGRLSEPGLICPDSTPPPHLREDDHHYSVRNSDSECPLSHDGYCLHDGVCMYIEALDKYACNCVVGYIGERCQYRDLKWWELRHAGHGQQQKVIVVAVCVVVLVMLLLLSLWGAHYYRTQKLLSKNPKNPYEESSRDVRSRRPADTEDGMSSCPQPWFVVIKEHQDLKNGGQPVAGEDGQAADGSMQPTSWRQEPQLCGMGTEQGCWIPVSSDKGSCPQVMERSFHMPSYGTQTLEGGVEKPHSLLSANPLWQQRALDPPHQMELTQ
modifications: Pro-epidermal growth factor
notes: epidermal growth factor injected to the side channels to stimulate chemoinvasion
invasion distance into the stromal region (50 ng/mL EGF in side channels vs -EGF control, by day 3): invaded further
cell count as a function of migration distance [1]: more cells had migrated a greater distance
number of cells in the media channels [1]: a higher number of cells were seen in the channels
